{"source": "paper PMC3247650", "about": "(Pharmaceutical research, 2011)", "key": {"Appearance": {"experiment": "Appearance", "assay_type": "physicochemical", "conditions": "GLP-1 1mg/ml in neutral solution"}, "Porcine kidney DPP IV": {"target": "Porcine kidney DPP IV (Sus scrofa, UniProt P22411)", "sequence (P22411 whole entry)": "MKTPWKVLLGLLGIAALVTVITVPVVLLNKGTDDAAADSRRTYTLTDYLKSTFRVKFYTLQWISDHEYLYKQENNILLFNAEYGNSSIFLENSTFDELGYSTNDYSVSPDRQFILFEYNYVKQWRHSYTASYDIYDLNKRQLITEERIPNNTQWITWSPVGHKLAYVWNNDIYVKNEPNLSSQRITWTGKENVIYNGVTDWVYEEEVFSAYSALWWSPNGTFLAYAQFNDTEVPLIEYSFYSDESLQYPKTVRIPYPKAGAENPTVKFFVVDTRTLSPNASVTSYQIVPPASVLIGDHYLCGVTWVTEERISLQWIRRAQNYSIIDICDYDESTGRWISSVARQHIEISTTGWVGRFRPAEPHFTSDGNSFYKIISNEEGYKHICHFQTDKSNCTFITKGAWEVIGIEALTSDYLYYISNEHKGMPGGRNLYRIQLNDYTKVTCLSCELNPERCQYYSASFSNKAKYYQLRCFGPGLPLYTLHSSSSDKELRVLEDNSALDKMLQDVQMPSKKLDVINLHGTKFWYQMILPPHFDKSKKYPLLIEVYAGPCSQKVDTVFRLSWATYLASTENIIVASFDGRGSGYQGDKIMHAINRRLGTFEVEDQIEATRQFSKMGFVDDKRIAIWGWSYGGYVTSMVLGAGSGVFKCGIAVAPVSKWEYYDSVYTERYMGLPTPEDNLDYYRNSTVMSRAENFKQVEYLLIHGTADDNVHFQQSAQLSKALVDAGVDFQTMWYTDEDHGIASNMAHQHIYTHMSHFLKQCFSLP", "experiment": "DPP IV degradation of GLP-1 in the presence or absence of PGC or PGC-C18", "assay_type": "in vitro ADME", "conditions": "24 hours, 37°C, reverse phase HPLC, mean +/−SD, n=6"}, "[1]": {"experiment": "Stability of PGC-C18-GLP-1 formulation at 37°C", "assay_type": "physicochemical", "conditions": "GLP-1 without PGC-C18, liquid, 100mM glycine pH 6.8, 2mg/ml GLP-1, 37°C, total GLP-1 peak by reverse phase HPLC"}, "DPP IV": {"tested_on": "DPP IV", "conditions": "read-out: Km of DPP IV for GLP-1; cited from earlier work"}}, "data": [{"substance": "Glucagon-like peptide-1 [GLP-1]", "values": [{"measurement": "appearance of solution when heated to 50°C", "setting": "Appearance; 50°C", "result": "quite clear"}, {"measurement": "appearance of solution as it cools down to room temperature", "setting": "Appearance; cooled from 50°C to room temperature", "result": "turns cloudy and less soluble"}, {"measurement": "GLP-1 degraded by DPP IV in the presence of the carrier PGC-C18", "setting": "Porcine kidney DPP IV; 1mg/ml GLP-1 + 10mg/ml PGC-C18 (1:10 w/w), PBS pH 7.4, 1.25mU/mL DPP IV", "result": "26+/−2%"}, {"measurement": "GLP-1 degraded by DPP IV, without any carrier", "setting": "Porcine kidney DPP IV; 1mg/ml GLP-1, PBS pH 7.4, 1.25mU/mL DPP IV", "result": "58+/−5%"}, {"measurement": "GLP-1 broken down within a month", "setting": "[1]", "result": "greater than 10%"}, {"measurement": "Km", "setting": "DPP IV", "result": 36, "unit": "µM"}]}]}
